1 substance from publication PMC9910501 can be followed below.

The assay has as its target OsASI1-BAH (residues 19 to 183) (rice). Put plainly: ITC. On the technique in general: In ITC the heat of successive injections is recorded.

pKd: −log10 of the molar value.

On to “OsSUVH6 N-terminal peptide (OsSUVH6N, residues 287 to 304)”, for which the pKd (in general, the negative decadic logarithm of the Kd, by convention in mol/L) was 6.74.
